Where “and” joins values, the source holds several entries; their conditions need not be identical. Equal values may be shown once.

Sequences and labels used below:
B2: CarD–NT (in vitro purified CarD) (natural protein, M. smegmatis, UniProt A0R561 1-162, looked up)
chain: MIFKVGDTVVYPHHGAALIEAIETRTIKGEQKEYLVLKVAQGDLTVRVPADNAEYVGVRDVVGQEGLDKVFQVLRAPHTEEPTNWSRRYKANLEKLASGDVNKVAEVVRDLWRRDQERGLSAGEKRMLAKARQILVGELALAENTDDAKAETILDEVLAAAS
notes: CarD, transcription factor of M. smegmatis; dimer when alone (native gel); Uniformly 13C,15N-labelled for some NMR samples; also called [^13C,^15N]-CarD; source: E. coli (strain LK3209), purified (Ni-NTA, TEV protease cleavage; for NMR also Superdex 75)

Series [1] has as its target B2. The series can be described thus: ITC; 27.6 μM CarD in the cell titrated by 315 μM CrsL; 27°C; 50 mM Tris–HCl, 100 mM NaCl, 0.5 mM DTT, pH 7.5; one-site binding model; triplicate. As to conditions: both partners purified. A general note: Isothermal titration calorimetry measures the heat released or taken up as one component is titrated into another.
Series [2] deals with the molecule itself. The series can be described thus: native gel or EMSA; purified CrsL, CarD and DnaK mixed in 1× STB buffer (50 mM Tris–HCl pH 8.0, 5 mM Mg acetate, 100 μM DTT, 50 mM KCl, 50 μg/ml BSA), 37°C 15 min; 8% native gel at 4°C; Coomassie stain, bands confirmed by mass spectrometry.

B1: CrsL–His (in vitro purified CrsL) (natural protein, M. smegmatis, UniProt A0R4M8 1-54, looked up)
chain: MPAKTDPADLGDVEPLADDTASQARRVVATYATDADECRMFLSMLGIGPSKTEV
notes: CrsL, small protein (predicted MW 5.7 kDa) encoded by MSMEG_5890 of M. smegmatis; 15N- or 13C,15N-labelled for NMR; also called [^15N]-CrsL; [^13C,^15N]-CrsL; source: E. coli (strain LK3499), purified (Ni-NTA, Superdex 75; for NMR Superdex 30)
One may read the Kd as the constant that tells how readily two partners part at equilibrium. A higher Kd goes with weaker binding. By stoichiometry N is commonly meant the number of molecules, sites or subunits per partner or assembly. As for B1, in series [1], the Kd is 4.3 nM and 4.5 nM and 3.3 nM; the dH is -21 kcal/mol; the “stoichiometry N” value came to 1.
In the case of B2, the “stoichiometry N” value in series [2] amounted to 2.

The record behind these values is publication PMC12709188, “Expanding the CarD interaction network: CrsL is a novel transcription regulator in actinobacteria” (Nucleic Acids Research, 2025).
